EC50 and Kd data for ten molecules are collected here from patent publication US20200347130A1 (JIANGSU HENGRUI MEDICINE, published 2020).

The target in assay [1] is T1, CD96 extracellular region with His tag (CD96-His) (human, UniProt P40200 22-519).
T1 construct: also called CD96-ECD-His; Bio-CD96-His (biotin-labelled form)
T1 sequence: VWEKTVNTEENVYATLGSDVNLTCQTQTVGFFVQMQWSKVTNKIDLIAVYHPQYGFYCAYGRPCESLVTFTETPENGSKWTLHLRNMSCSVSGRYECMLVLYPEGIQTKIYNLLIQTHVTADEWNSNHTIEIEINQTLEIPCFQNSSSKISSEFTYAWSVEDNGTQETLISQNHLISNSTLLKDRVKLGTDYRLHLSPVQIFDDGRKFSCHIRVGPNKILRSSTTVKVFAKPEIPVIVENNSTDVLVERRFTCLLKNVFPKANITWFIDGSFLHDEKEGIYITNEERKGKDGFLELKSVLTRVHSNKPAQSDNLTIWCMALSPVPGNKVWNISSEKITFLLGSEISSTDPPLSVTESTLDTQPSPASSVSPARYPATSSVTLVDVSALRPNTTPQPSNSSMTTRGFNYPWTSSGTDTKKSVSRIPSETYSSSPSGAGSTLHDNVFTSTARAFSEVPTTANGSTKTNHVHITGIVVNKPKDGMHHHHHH
Kind of assay: ELISA, CD96-His coated. The method, then:
The binding capacity of the anti-CD96 antibody was tested by ELISA to determine the binding of the antibody to human CD96 protein. The His-tagged CD96 fusion protein was used to coat the microtiter plate, and the intensity of the signal after adding with the antibody was used for evaluating the binding activity of the antibody and CD96. The specific experimental method is as follows:
CD96-His with the sequence of SEQ ID NO: 4 prepared in Embodiment 1 was diluted to a concentration of 2 μg/ml with PBS buffer (Shanghai Yuanpei Biotechnology Co., Ltd. Cat No. B320), pH 7.4, added to a 96-well microtiter plate (Corning, Cat No. CLS3590-100EA) at a volume of 50 μl/well, and placed in an incubator at 37° C. for 2 hours. After discarding the liquid, 250 μl/well of 5% skim milk (BD, Cat No. 232100) blocking solution diluted with PBS was added, and the plate was incubated at 37° C. for 2.5 hours or at 4° C. overnight (16-18 hours) for blocking. After blocking, the blocking solution was discarded, and the plate was washed 4 times with PBST buffer (pH 7.4 PBS containing 0.05% tween-20). 50 μl/well of different concentrations of the antibodies to be tested (hybridoma purification antibody or humanized antibody) diluted with sample dilution was added, and the plate was incubated in an incubator at 37° C. for 1 hour. […] After washing the plate 4 times with PBST, 50 μl/well of TMB chromogenic substrate (KPL, Cat No. 52-00-03) was added, and the plate was incubated at room temperature for 5-15 minutes, followed by adding 50 μl/well of 1M H₂SO₄ to stop the reaction. The absorption value was read at 450 nm with a NOVOStar microplate reader, and the EC50 value of the binding of CD96 antibody to human CD96 was calculated (see Table 13).

Assay [2] concerns the target T2, Full-length human CD96 on CHO-S cells (human, UniProt P40200 22-585).
T2 construct: also called CD96-CHOs; hCD96-CHOs
T2 sequence: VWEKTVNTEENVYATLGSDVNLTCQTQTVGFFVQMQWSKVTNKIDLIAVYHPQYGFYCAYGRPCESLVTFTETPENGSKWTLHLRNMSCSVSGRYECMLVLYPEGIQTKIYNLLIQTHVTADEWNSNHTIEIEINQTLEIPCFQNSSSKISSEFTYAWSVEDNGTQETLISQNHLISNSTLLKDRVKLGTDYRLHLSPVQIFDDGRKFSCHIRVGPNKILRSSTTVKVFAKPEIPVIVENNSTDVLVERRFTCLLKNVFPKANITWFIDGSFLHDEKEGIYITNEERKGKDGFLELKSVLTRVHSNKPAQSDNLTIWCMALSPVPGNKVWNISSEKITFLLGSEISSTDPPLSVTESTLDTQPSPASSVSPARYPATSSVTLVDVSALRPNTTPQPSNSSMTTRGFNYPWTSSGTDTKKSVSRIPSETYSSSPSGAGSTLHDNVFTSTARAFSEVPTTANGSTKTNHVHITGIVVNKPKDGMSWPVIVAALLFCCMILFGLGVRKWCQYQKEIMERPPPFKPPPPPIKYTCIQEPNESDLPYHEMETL
Kind of assay: cell ELISA, fixed CD96-overexpressing CHO-S cells. The method, then:
The binding capacity of the anti-CD96 antibody was tested by binding experiments of the antibody to human CD96 protein overexpressing CHO-S cells. The full-length CD96 plasmid was transfected into CHO-S cells by electrotransfection, and cells were then screened for two weeks under pressure for the detection of the expression of CD96. After the over-expressing cells were fixed at the bottom of the 96-well plate, the density of the signal after adding the antibody was used to judge the binding activity of the antibody to CD96 overexpressing CHO-S cells. The specific experimental method is as follows:
The cells were seeded at a density of 9×10⁴/100 μL/well in a 96-well plate and cultured overnight. After aspirating the supernatant, the plate was washed once with PBS, subsequently, 100 μl/well immunostaining fixation solution (Biyuntian, P0098) was added and fixed for one hour at room temperature, and the plate was washed three times with PBS. Once the liquid was discarded, 250 μl/well of 5% skim milk (BD, 232100) blocking solution diluted with PBS was added, and the plate was blocked in an incubator at 37° C. for 2.5 hours. After blocking, the blocking solution was discarded, the plate was washed 4 times with PBST buffer (pH 7.4 PBS containing 0.05% tween-20), followed by diluting 50 μl/well of different concentrations of the antibodies (hybridoma purification antibody or humanized antibody) to be tested the plate was incubated in an incubator at 37° C. for 2 hours. After incubation, the plate was wash 4 times with PBST. […] After washing the plate 4 times with PBST, 50 μl/well of TMB chromogenic substrate (KPL, Cat No. 52-00-03) was added, the plate was incubated at room temperature for 10-25 min, followed by adding 50 μl/well of 1M H₂SO₄ to stop the reaction. The absorption value was read at 450 nm with a NOVOStar microplate reader, and the EC50 value of the CD96 antibodies to CD96 overexpressing CHO-S cells was calculated (see FIG. 1 and Table 15).
(In general: ELISA stands for enzyme-linked immunosorbent assay.)

Assay [3] has as its target T1, CD96 extracellular region with His tag …. Description: SPR (Biacore), antibody captured, CD96-ECD-His as mobile phase. From the text:
Protein A biosensor chip was used to capture antibodies to be tested, then CD96 antigen was flowed on the surface of the chip, and real time reaction signal was detected by Biacore to obtain the binding and dissociation curve. After the dissociation of each experimental cycle was completed, the biosensor chip was washed and regenerated with a glycine-hydrochloric acid regeneration solution (pH 1.5).
Background: Surface plasmon resonance follows binding to a sensor surface in real time, without labels.

B1: ch1720 (antibody, human IgG4 S228P, kappa, V domains shown)
VH: EFQLQQSGPELVKPGASVKISCKASAYSLTDYNMNWVKQSNGKSLEWIGVINPSYGISSYNQKFKGKATLTVDQSSSTAYMHLNSLTSEDSAVYYCARQLRLPGYFDVWGTGTTVTVSS
VL: DIKMTQSPSSKNASLGERVTITCKASQDINSYLNWFQQKPGKSPKTLIYRASRLVDGVPSRFSGSGSGQDYSLTISSLEYEDMGIYYCLKYDEFPYTFGGGTKLEIKR
notes: also called chimeric antibody corresponding to m1720
In the case of B1, the EC50 (as a rule, the midpoint of the concentration-response curve) in assay [1] came to 0.074 nM; in assay [2] it was 0.036 nM. Moreover, binding in assay [3] was characterised by a dissociation constant (Kd) of 1.35 nM.

B2: ch1718 (antibody, human IgG4 S228P, kappa, V domains shown)
VH: EFQLQQSGPELVKPGASVKISCKASAYSITDYNMNWVKQSNGKSLEWIGVINPSYGITDYNQNFKDKATLTVDQSSSTAYMQLNSLTSEDSAVYYCAIQLRLPGYFDVWGTGTTVIVSS
VL: DIKMTQSPSSMYASLGERVTITCKASQDINNYLNWFQQKPGKSPKTLIYRANRLVDGVPSRFSGSGSGQDYSLTISSLEYEDMGIYYCLKYDEFPYTFGGGTKVEIKR
notes: also called chimeric antibody corresponding to m1718
With B2, the EC50 in assay [1] came out at 0.084 nM; in assay [2], 0.026 nM. For the same molecule, the Kd (in general, the equilibrium constant for the complex coming apart) in assay [3] was determined as 3.32 nM.

B3: h1719-010 (antibody, V domains shown)
VH: EVTLKESGPVLVKPTETLTLTCTVSGFSLSSYGVSWVRQPPGKGLEWLGVIWGDGNTNYHSVLISRLTISKDTSKSQVVLTLTNMDPVDTATYYCAKQNYYGSRYGYPIDYWGQGTTVTVSS
VL: DIQMTQSPSSVSASVGDRVTITCKATQDVGTAVAWYQQKPGKAPKLLIYWASTRHTGVPSRFSGSGSGTDFTLTISSLQPEDFATYYCQQYGSSVLTFGGGTKVEIK
notes: Only variable regions are tied to this name
The molecule B3 had a Kd in assay [3] of 465 nM.

B4: ch1719 (antibody, human IgG4 S228P, kappa, V domains shown)
VH: QVQLKESGPGLVAPSQSLSITCTVSGFSLISYGVSWVRQPPGKGLEWLGVIWGDGNTNYHSVLISRLSIRKDDSKSQVFLKLNSLQTDDTATYYCAKNNYYGSRYGYPMDYWGQGTSVTVSS
VL: DIVMTQSHKFMSTSVGDRVSITCKATQDVGTAVAWYQQKPGHSPKLLIYWASTRHTGVPERFTGSGSGTDFTLTIDNVQSEDLADYFCQQYGSSVLTFGAGTKVELRR
notes: also called chimeric antibody corresponding to m1719
For the molecule B4, the EC50 came out at 0.065 nM in assay [1] and 0.012 nM in assay [2]. This molecule had a Kd in assay [3] of 9.74 nM.

B5: h1721-003 (antibody, V domains shown)
VH: EVTLKESGPVLVKPTETLTLTCTVSGFSLSSYGVNWIRQPPGKALEWLGVIWGDGSTNYHSALISRLTISKDTSKSQVVLTLTNMDPVDTATYYCAKNYFYGSRYGYAMDSWGQGTTVTVSS
VL: DIQMTQSPSSLSASVGDRVTITCRASENIYSSLAWYQQKPGKAPKLLIYNAKTLIEGVPSRFSGSGSGTDFTLTISSLQPEDFATYYCQHHYGTPYTFGGGTKVEIK
notes: Only variable regions are tied to this name; also called M721-003
Regarding B5, the EC50 in assay [1] came out at 0.07 nM; in assay [2], 0.074 nM. This molecule showed a Kd in assay [3] of 1.61 nM.

B6: h1722-010 (antibody, V domains shown)
VH: EVQLVQSGAEVKKPGSSVKVSCKASGGTFSDYWMHWVRQAPGQGLEWIGMLHPNSGTTSFNEKFKIRVTITADKSTSTAYMELSSLRSEDTAVYYCASDYSGPFAYWGQGTLVTVSS
VL: DIQLTQSPSSLSASVGDRVTITCSASSSVNYIHWYQQKPGKAPKRWIFDTSKLASGVPSRFSGSGSGTDYTLTISSLQPEDFATYYCQQWRSNPLTFGQGTKLEIK
notes: Only variable regions are tied to this name; also called M722-010
Regarding B6, the figures for the EC50 in assay [1] and in assay [2] were 0.073 nM and 0.047 nM, respectively. Further, binding in assay [3] was characterised by a dissociation constant (Kd) of 0.86 nM.

B7: h1722-017 (antibody, V domains shown)
VH: EVQLVQSGAEVKKPGSSVKVSCKASGGTFSDYWMHWVRQAPGQGLEWIGMLHPKSGTTSFNEKFKIRVTITADKSTSTAYMELSSLRSEDTAVYYCASDYSGPFAYWGQGTLVTVSS
VL: DIQLTQSPSSLSASVGDRVTITCSASSSVNYIHWYQQKPGKAPKRWIFDTSKLASGVPSRFSGSGSGTDYTLTISSLQPEDFATYYCQQWRSNPLTFGQGTKLEIK
On to B7, for which the EC50 in assay [1] came to 0.113 nM; in assay [2], 0.053 nM.

B8: h1722-018 (antibody, V domains shown)
VH: EVQLVQSGAEVKKPGSSVKVSCKASGGTFSDYWMHWVRQAPGQGLEWIGMLHPQSGTTSFNEKFKIRVTITADKSTSTAYMELSSLRSEDTAVYYCASDYSGPFAYWGQGTLVTVSS
VL: DIQLTQSPSSLSASVGDRVTITCSASSSVNYIHWYQQKPGKAPKRWIFDTSKLASGVPSRFSGSGSGTDYTLTISSLQPEDFATYYCQQWRSNPLTFGQGTKLEIK
In the case of B8, the EC50 in assay [1] amounted to 0.091 nM; in assay [2], 0.044 nM.

B9: h1722-006 (antibody, V domains shown)
VH: EVQLVQSGAEVKKPGSSVKVSCKASGGTFSDYWMHWVRQAPGQGLEWIGMLHPNSGTTSFNEKFKIRVTITADKSTSTAYMELSSLRSEDTAVYYCASDYSGPFAYWGQGTLVTVSS
VL: DIQMTQSPSSLSASVGDRVTITCSASSSVNYIHWYQQKPGKAPKRWIYDTSKLASGVPSRFSGSGSGTDFTLTISSLQPEDFATYYCQQWRSNPLTFGQGTKLEIK
notes: as for B3
On to B9, for which the EC50 in assay [1] was 0.077 nM; in assay [2] it was 0.043 nM. Besides, the Kd in assay [3] was 1.19 nM.

B10: h1718-012 (antibody, V domains shown)
VH: EVQLVQSGAEVKKPGASVKVSCKASGYTITDYNMNWVRQAPGQRLEWIGVINPSYGITDYNQNFKDRVTITVDTSASTAYMELSSLRSEDTAVYYCAIQLRLPGYFDVWGQGTTVTVSS
VL: DIQMTQSPSSLSASVGDRVTITCKASQDINQYLNWFQQKPGKAPKTLIYRANRLVDGVPSRFSGSGSGQDYTLTISSLQPEDFATYYCLKYDEFPYTFGGGTKVEIK
notes: as for B3
As to B10, the values for the EC50 in assay [1] and in assay [2] were 0.095 nM and 0.031 nM, respectively. In addition, in assay [3], the Kd was found to be 3.98 nM.
